Measurements reported in paper PMC4686829 (Nature Communications, 2015).

B1: 100F4, full-length human IgG1 (antibody, V domains shown)
VH: QLQLQESGLGLVKPSETLSLTCTVSGDSVSSGSYYWSWLRQPPGKGLEWIGNMHGSGHTNYNPSLKSRVTITPDTSKNHFSLRLSSVTAADTAVYYCARALLTTVTTFEYWGQGTLVTVSS
VL: QSALTQPPSVSGAPGQRVTIPCTGGSSNIGAGYSVHWYQQLPGTAPKLLIYGSNSRPSGVPDRFSGSKSGTSASLAITGLRPEDEADYYCQSYDSSLSGSQVFGAGTRVTVL
notes: IgG1; source: 293 T cells, transient transfection, purified (Protein A agarose)
B2: 65C6 Fab (Fab, V domains shown)
VH: EVQLVQSGAEVKKPGESLRISCKGFAYSSTYFWISWVRQMPGKGLEWMGRIDPTDSYINYSPSFQGHVTISVDRSISTVYLQWSSLKASDTAMYYCAYHRRGHFYGSGSAWDWFESWGQGTLVTVSS
VL: EIVLTQSPLTLSVSPGERATLSCRASQSVSSNLAWYQQMPGQAPRLLIYGASTRATGIPARLSGSASGTEFTLTISSLQSEDFAVYYCQQYNNWPYTFGQGTKLEIK
B3: 65C6, full-length human IgG1 (antibody, V domains shown)
VH: B2 VH
VL: B2 VL
notes: as for B1
B4: AVFluIgG03 Fab (Fab, V domains shown)
VH: EVQLLESGGGLVQPGGSLRVSCTNSGFTFSNYAMSWVRQAPGKGLEWVSAISGNGGSGTYYADSVKGRFTISRDNSKNTMYLQMNSLRAEDTAVYYCVRDDSYDGGGHYGLHNWFDSWGQGTLVTVSS
VL: SVLTQPPSVSGAPGQRVTISCTGSSSNIGAGYDVHWYQQLPGTAPKLLIYGNSNRPSGVPDRFSGSKSGTSASLAITGLQAEDEADYYCQSYDSSVVVFGGGTKLEIK
notes: also called Fab of AVFluIgG03; AVFulgG03
B5: AVFluIgG03, full-length human IgG1 (antibody, V domains shown)
VH: B4 VH
VL: B4 VL
notes: IgG1; also called AVFulgG03; AVFluIg03; source: 293 T cells, transient transfection, purified (Protein A agarose)

Legend:
[1] = molecular target: HA fragment between residues I60 and G263 (F60–263) of A/Anhui/1/05, displayed on yeast (Influenza A virus A/Anhui/1/2005 (H5N1), strain); test: flow cytometry on cells; conditions: one partner purified
[2] = molecular target: globular head of H5 HA, HA1 fragment between residue D55 and E271 (F55–271) of A/Anhui/1/2005 (Influenza A virus A/Anhui/1/2005 (H5N1)); test: crystal structure; conditions: both partners purified

| Binder | binding result [1] | binding result [2] |
| --- | --- | --- |
| B1 | binds |  |
| B2 |  | binds |
| B3 | binds |  |
| B4 |  | binds |
| B5 | binds |  |
